Assay results reported in the supplement of paper PMC12042874.
± gives the uncertainty stated by the source.

Test: amyloid nucleation score (Sup35N fusion, yeast selection) (log enrichment); library NNK2; higher = more nucleation; inactive = no reads after selection
How it was run: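 Nucleation score is defined as the DiMSum log enrichment of output over input reads, with centring on the mode score of non-aggregating sequences. A minimum of 100 input reads was required for each sequence. Reads came from Illumina sequencing of plasmid inserts from psi-negative yeast expressing Sup35N fused to peptides of 20 random codons, induced with 100 μM copper sulfate for 24 hours and grown 7 days at 30°C on medium lacking adenine and uracil.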

Substance | amyloid nucleation score
IRKIMVF | inactive
QSRSYFRRGVTSCLHPGWET | 0.452 ± 0.53
GVASNGKGFNTFMCAHCY | -0.225 ± 0.41
TGAYI | -1.94 ± 0.75
CTPNWRLSSFRWYVLRTFSE | 0.052 ± 0.37
NVMKVLSNRL | 1.61 ± 0.1
VGSFGLMKTYGVYCDNLLGR | inactive
FSIVFGI | 1.17 ± 0.15
YLGLPLQDLRRVIMSEHVLV | 0.779 ± 0.37
QAFPDLTVVRACYMHLL | 0.54 ± 0.25
LLSMYRFFNTLKSC | -0.087 ± 0.33
PINKGKWCSTNFNAGITRI | -0.01 ± 0.61
LAQWLTRLYAK | 1.12 ± 0.4
GNKLYFCSFAWLEVFKFKDL | 1.86 ± 0.082
HVKTTYQLAFSNEQIM | -0.673 ± 0.48
LSDYLPISSWFSLCTEFLAT | -1.02 ± 1.1
YFWDQGLHPVSFRESTYDLV | -0.243 ± 1.1
TDCMPMHVYGDYYLMGMSRE | -0.555 ± 0.33
YLLRYYGGSFNHLMCWFRSP | 2.6 ± 0.06
TSYACRVIAMRVVCPCRQLR | inactive
KLLAVVLFGDGLAFNN | 3.24 ± 0.064
ARKCDLFYTFFCTNIFSSVG | 4.798 ± 0.039
KFMHRWPVYMVSTGLSLIVW | -0.458 ± 0.41
LPVVLAGS | -0.191 ± 0.79
PRWKHLTWIP | -0.349 ± 0.64
SFDFHNGGDIEYLV | inactive

Substance | amyloid nucleation score
VFVWECGAIQSLLISYMNDM | -0.784 ± 0.53
IYIMVTVF | 0.086 ± 0.33
LIEAESSDRGPYVPNQCGWN | 1.11 ± 0.68
PASTREDGWFYCAHSVVSSQ | 0.346 ± 0.54
LLPRCDGGVLVHLNDKSYKL | 1.32 ± 0.39
NIVYESDVVFSCISKYWL | 5.426 ± 0.04
RILTVYVPV | 1.19 ± 0.39
YNPSYLMELNEV | -0.376 ± 0.55
MTYRSLPEYTDLLWVTYVER | 0.369 ± 0.46
WWGGINSVLVTDEWLVRLGK | -0.166 ± 0.19
IRCQSVRDIGLYFDLDWVEK | 2.28 ± 0.085
RVMMSRISYSLSCVSADKVR | 0.288 ± 0.24
ILGHLYLKIKKLSFVM | -0.658 ± 1
SRYSFYLRFHVLSVMAVQML | 0.688 ± 0.81
KCKRLVSKNIRL | -0.342 ± 1
LQCGRIV | -0.204 ± 0.79
HWYTAMVYIFKRQD | 0.974 ± 0.091
DGTNFDR | -0.92 ± 0.37
RYLSLVFVYIVGVLYSSCDV | 0.383 ± 0.14
PFDFWRLISSLG | 0.531 ± 0.81
WSLDSYSMTAVF | -0.467 ± 0.39
EINGY | -0.418 ± 1
VACIFCLSSPHPC | 6.48 ± 0.084
LVYVT | 0.434 ± 0.37
RAKTNSVGDLQYGIHVPMKG | -0.043 ± 0.37
VINLRLLLIVLDGDIDYWCV | inactive

Substance | amyloid nucleation score
YPFILVVTIEYACLVRRLGV | -0.309 ± 0.23
GLYIEKARQRYPRSQHLIAM | -0.419 ± 0.49
VTNVCGWRTEGWYDPGSAKT | 1.13 ± 0.33
YNKGWR | inactive
MVVNVGK | -0.088 ± 0.17
RFTESYSL | -0.935 ± 0.48
GYLVTLWD | 1.03 ± 0.49
DEGSNIGHGSLDIHRDCALL | -0.264 ± 0.23
MYTKVNF | -0.93 ± 0.76
FLMGVPEIFFPLVVSDYMYV | inactive
PRVPCTHHMPGW | 0.027 ± 0.65
THVRVEVLS | inactive
YRLAFKMRNHGYQVELGLSV | -0.088 ± 1.1
THDKLHFLAFVFSPLFLTTM | inactive
LNVPGSAMNGRSRNPSF | -0.661 ± 0.48
HLFTSCYYYMPLYLLSQRQY | 6.095 ± 0.044
VYALCMGLAWKGLDYHKGER | 5.68 ± 0.07
SVKHGMLCYTLLDNMRCTVE | -0.087 ± 0.26
TCLSQQCTEIEWIKFTPMSR | 4.31 ± 0.056
VCCFLLHQN | 6.88 ± 0.083
EFYFSVRPVKLCFGLNVTNN | -0.146 ± 1
TLTNHWLRSLCITSKGTLSC | inactive
FMITWGINRS | 4.02 ± 0.043
VTSYHFRMSCAVREALSSRY | 4.26 ± 0.055
QGLSCEGILWLVEYSQTFFG | -1.27 ± 1.1
RWIVRDSFESWFMVLD | -0.267 ± 0.35

Substance | amyloid nucleation score
VLALYYINSATLILFLIFKS | -1.16 ± 1.1
PAYRYKHSNWKNPRQ | inactive
TCKVRLRHVDYNCIMVLLLM | -0.359 ± 0.45
LEYERC | -0.097 ± 1.1
VYFFCYSFTYEEGMAIRKSC | -1 ± 0.78
VNFVLGVL | 0.086 ± 0.19
FAMDSIKRFFKIIIFSRYT | -1.34 ± 1.1
MNEFCRTGCRTFRQRSSCCR | 0.868 ± 0.15
LTGTMVMIVNPLDCVLGVER | 5.01 ± 0.085
PVFVLNVLLVILDPFLGLSN | -0.237 ± 0.34
NSIYTESHGCTSSCLYGSGY | -0.839 ± 0.78
GSLHVNGVVHVSDCHVTY | 1.34 ± 0.53
VPSFYYRIVTYKRAE | 2.74 ± 0.094
LAPCISNMSRLL | -1.25 ± 0.36
HRSYCGFICASVLSAGPVHR | -0.31 ± 1.1
STCTLKCWRWMPWTSFSFRC | 1.3 ± 0.21
GWWVCWVL | -1.07 ± 1.1
RYLVVKEQDFPDEYAPY | -0.271 ± 0.55
FYMPLLMYVVAVRPMSGNLV | -0.22 ± 1
NDTRSLLML | 0.259 ± 0.24
GLCKFKQVCTNSVGNYVGYF | -2.18 ± 0.62
TTMSTGARGLSRCLSVVFRR | 3.08 ± 0.12
CMQTSDEPLRHGP | -0.06 ± 0.79
SRSCVKH | -1.27 ± 0.55
LYLYSWRCNPISP | inactive
GLWLRFVCSIYFLMYIVHIN | inactive

Substance | amyloid nucleation score
SITYTNLMNTLQAIRTSFLA | -0.708 ± 1.1
AGWRLVTQDRLSLLNQTDVF | 1.05 ± 0.36
VRFYDLFFKVGRQVYCLNNS | -0.694 ± 0.55
RIFQLSTSGN | 0.072 ± 1.1
IVDRAFDRAFRCGTGFGTDI | inactive
GSPAVGEGG | 0.697 ± 0.81
SLVNYPMKVIGVVRKFW | 2.08 ± 0.13
MMYISSGVFWTE | inactive
LYCSSLFKVYRGVQTRAKLR | inactive
TAHYDVGC | -0.283 ± 1
IFPFLDFRRFFLVYHVGPIS | 2.4 ± 0.24
CEWHYRRGFMMIGVMWNAVF | 0.427 ± 0.36
CRKRGH | 1.33 ± 0.49
MSGWVAGLHLDVCGVDYAGG | 1.9 ± 0.29
VLRSTLDD | inactive
TTRSNEKIVFHGWTSVINRH | -0.696 ± 0.76
VYLDWFYWPDTIHG | 4.87 ± 0.075
SLRYSMRPMAFRFKHPLAPT | -0.166 ± 0.28
QWCLSNNVLWEMGVW | inactive
GIPVMPTDSRGTPGVMVFEY | -1.25 ± 1
LWLVSKAYRYLPYSDWKSAL | 0.161 ± 0.77
DGAGKYTSPSDYDDRYRLAV | 0.466 ± 0.17
TRSSNNPPGMVDT | -0.959 ± 0.38
NDKCKLVLIGLDFNELVQPS | -0.708 ± 1.1
